Data as given in article PMC6330057 (Nature cell biology, 2018).

B1: CrSSNA1(1-105) (domain or fragment, Chlamydomonas reinhardtii, UniProt Q9XF62 1-105, looked up)
chain: MSAQGQALQNHNNELVKCIEDLREKREEIIKQLREDDAEKAKITQELQILTKRLAQVNESIARKTETKNEYDKVISETEAAYLKILESSQTLLTVLKREAVNIAK
B2: CrSSNA1(20-111) (domain or fragment, Chlamydomonas reinhardtii, UniProt Q9XF62 20-111, looked up)
chain: EDLREKREEIIKQLREDDAEKAKITQELQILTKRLAQVNESIARKTETKNEYDKVISETEAAYLKILESSQTLLTVLKREAVNIAKKKQASS

Biological target: the molecule itself
Assay: negative-stain electron microscopy of fibrils

Protein	binding result
B1	binds
B2	binds
